This is an account of results in the supplement of paper PMC12042874.

This data set in a line: amyloid nucleation score (Sup35N fusion, yeast selection) (log enrichment); library NNK2; higher = more nucleation; inactive = no reads after selection. The gist of the method:
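Plasmid inserts were Illumina-sequenced at input and output from psi-negative yeast expressing Sup35N fused to peptides of 20 random codons. The yeast were induced with 100 μM copper sulfate for 24 hours and grown 7 days at 30°C on medium lacking adenine and uracil, and sequences with under 100 input reads were excluded. Nucleation score is the DiMSum log enrichment of output over input reads, centred on the mode score of non-aggregating sequences.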

± gives the uncertainty stated by the source.

YLNCDSFMRSVVYFNLWDIG: the amyloid nucleation score is -1.57 ± 0.75.

In turn, HLNNCALGTDLILNALDVS registered an amyloid nucleation score of -0.426 ± 0.54.

FKIVALTTVNIVLRDSWCNP gave an amyloid nucleation score of 6.199 ± 0.061.

As to IVDRAFDRAFRCGTGFGTDI, the amyloid nucleation score result is “inactive”.

Consider CWSTQDHLNCVID, for which the amyloid nucleation score result is “inactive”.

The substance YLRRGNKLCESTLVVTCTMV displayed an amyloid nucleation score of -0.087 ± 1.

Turning to FGMFGSSYYIMY, the amyloid nucleation score came out at 2.63 ± 0.093.

For SRYSFYLRFHVLSVMAVQML, the amyloid nucleation score turned out to be 0.688 ± 0.81.

On to VVLPFGMHAWYTKDNVEISS, for which the amyloid nucleation score was determined as 0.181 ± 0.15.

Consider KRDLGFRVVLWYLW, for which the amyloid nucleation score was -0.942 ± 0.6.

For WFQLRMVLTGEFEPVLERSR, the amyloid nucleation score is 2.86 ± 0.11.

NHHTEDMVK gave an amyloid nucleation score of 0.367 ± 0.32.

In the case of RFGVSVTGDTSRCSGCGGAH, the amyloid nucleation score is 4.01 ± 0.089.

VWDHVAGARALTWLRMLLKQ: the amyloid nucleation score entry was “inactive”.

Take LHTYYGMCLPRVENISENRV: the amyloid nucleation score entry is “inactive”.

Regarding SVYEIYWRVT, the amyloid nucleation score is -0.348 ± 0.65.

In the case of LFFTKGKLFNEAI, the amyloid nucleation score entry was “inactive”.

In the case of TCSRERGRRWFGICASYSCE, the amyloid nucleation score worked out at 0.629 ± 0.47.

In the case of YLGTDGFNDGLVGLTTNIMS, the amyloid nucleation score is -0.798 ± 0.47.

LFPFRASRGPVPYKRDQ: the amyloid nucleation score came to 1.89 ± 0.52.

In the case of SYVQMTDT, the amyloid nucleation score was -0.146 ± 1.

Take LWFLVFMDMVRRWRGNHRGE: the amyloid nucleation score was -0.656 ± 1.1.

RTEGRGCRAAWSK showed an amyloid nucleation score of 0.101 ± 0.76.

In turn, WDRTTDSSFQVRKYQSENFL displayed an amyloid nucleation score of 0.092 ± 1.1.

For the substance GSLHVNGVVHVSDCHVTY, the amyloid nucleation score came out at 1.34 ± 0.53.

Take WDSIVDVSSKIAFFRMNDSS: the amyloid nucleation score was -1.41 ± 0.62.

In the case of RLHKTSNITTWIAHPLHNR, the amyloid nucleation score was -0.038 ± 0.65.

In the case of ILIWVVNLYAYVNYFM, the amyloid nucleation score was 3.1 ± 0.062.

In turn, TSESSV displayed an amyloid nucleation score of -0.36 ± 0.64.

As to YDGSVKMGVFCGVRVYAPVS, the amyloid nucleation score is -0.191 ± 1.1.

As for VLAVSLIYALTP, the amyloid nucleation score entry was “inactive”.

For RGLAES, the amyloid nucleation score is -0.2 ± 0.24.

As for SLFTTINARNATAEQCSMQT, the amyloid nucleation score amounted to 0.502 ± 0.21.

The substance MLDGTSCICVVIEA yielded an amyloid nucleation score of -0.035 ± 0.21.

YMLNHVIQNMSSWCEVT: the amyloid nucleation score is -0.103 ± 0.34.

Consider VCYLLFFKRSSYKFSINHYC, for which the amyloid nucleation score entry is “inactive”.

Take HAILPRCTFHSPMVYALYFT: the amyloid nucleation score came out at 0.58 ± 0.65.

Substance CAVVRGLTVKAVL registered an amyloid nucleation score of -0.64 ± 0.76.

NERYP displayed an amyloid nucleation score of -0.865 ± 0.33.

In turn, SMRVECF yielded an amyloid nucleation score of -1.82 ± 1.1.

GYHDRLSPSQTLPPTRNVLC displayed an amyloid nucleation score of 0.312 ± 0.8.

Consider WAFNPTELLVDAQKSRGRIW, for which the amyloid nucleation score result is “inactive”.

In the case of ENHQCGWGLPLCTVVSR, the amyloid nucleation score was 6 ± 0.077.

Substance RRVTRKVVGPRNYAYEKYFW came in with an amyloid nucleation score of 3.28 ± 0.06.

On to HSNALCLRFVLLPLSGIDIM, for which the amyloid nucleation score was -0.295 ± 0.54.

As to STKSSVAVGSDSWNRSHRQV, the amyloid nucleation score came to 0.773 ± 0.22.

Consider RSYQMSGPIALRKWEEEWAE, for which the amyloid nucleation score stood at 0.611 ± 0.46.

In turn, SRLMVGGQSLVSW showed an amyloid nucleation score of 5.716 ± 0.042.

FYHRGMMWMYKWGMARYRVC came in with an amyloid nucleation score of 0.044 ± 0.44.

Consider FLFGLSIMLLNKEPGRCFRG, for which the amyloid nucleation score amounted to 5.23 ± 0.097.

As to IYWMIIFWGFE, the amyloid nucleation score is -0.089 ± 1.1.

VNQLRHYDLGINAHGQCRRL: the amyloid nucleation score was 0.54 ± 0.8.

The substance KKNSAVHVYF had an amyloid nucleation score of -1.01 ± 1.1.

Substance LQCEIKPMGDTIMW gave an amyloid nucleation score of 1.47 ± 0.54.

Regarding VAYLNLCLS, the amyloid nucleation score entry is “inactive”.

RMVKLDDNVKYYVKSVEGYE came in with an amyloid nucleation score of 0.276 ± 0.6.

DISVYSDFVLSFICADVHPS: the amyloid nucleation score was found to be 5.02 ± 0.04.

LLNVPGLVAYEIRGPMRYLF showed an amyloid nucleation score of -0.519 ± 0.44.

YCGGFGGFWVEYWWDKYPTC: the amyloid nucleation score was -0.171 ± 0.23.

Regarding CPLEAYLD, the amyloid nucleation score entry was “inactive”.

Regarding DLVMVSVSADVHSSNS, the amyloid nucleation score was 0.163 ± 0.5.

On to RLSFNWSLKSYMLPLESSVV, for which the amyloid nucleation score was -0.079 ± 0.55.

DDLLIRYC: the amyloid nucleation score is -0.022 ± 0.21.

Regarding YRVYLVFYDFVFVFYMSKYL, the amyloid nucleation score result is “inactive”.

SVYVCVKWESVSVLVLY returned an amyloid nucleation score of 1.86 ± 0.12.

The substance KLFRQQCDS showed an amyloid nucleation score of 0.247 ± 0.8.

For the substance SRWKGSRF, the amyloid nucleation score was 0.764 ± 0.26.

As to TRASYFCQSTANYSVSRSNM, the amyloid nucleation score turned out to be 1.8 ± 0.3.

Take PEFITEFQALASFEYVMLRF: the amyloid nucleation score is -1.23 ± 0.41.

DMGVFSLLDNK yielded an amyloid nucleation score of 0.579 ± 0.66.

SVEMRTNLTAGWRILIRWSS gave an amyloid nucleation score of 1.2 ± 0.14.

As for CTILVILSKVSYCQYPWEHV, the amyloid nucleation score was found to be 1.52 ± 0.14.

As to VNYYSFLLVFPGLQLTREIN, the amyloid nucleation score was 6.38 ± 0.09.

FTTPVSFSFVLRLITTPRTY: the amyloid nucleation score is -1.29 ± 0.75.

As for AQWSRIDCNTLCKAVPISLA, the amyloid nucleation score stood at 5.773 ± 0.056.

With GTCCARAIGRYGYFNCRHRM, the amyloid nucleation score was -0.017 ± 0.34.

With ISKLTTRLLIYERNFPNWGH, the amyloid nucleation score is 3.19 ± 0.17.

With AGSLRR, the amyloid nucleation score is 1.51 ± 0.41.

For RTALKYPVSYSRFGSFADES, the amyloid nucleation score is -0.73 ± 0.41.

TAHYDVGC displayed an amyloid nucleation score of -0.283 ± 1.

As to LSFIFL, the amyloid nucleation score was 4.256 ± 0.031.

PQGDSMTVCFQLVT: the amyloid nucleation score was determined as 1.28 ± 0.61.

Take ELQGYSNCGLEIGGTCHRGY: the amyloid nucleation score was -0.302 ± 0.61.

In turn, SPACLNS displayed an amyloid nucleation score of 4.58 ± 0.053.

Take KSPNHSDRVQWMKYTFWYTL: the amyloid nucleation score is -0.003 ± 1.1.

Substance VNFGI returned an amyloid nucleation score of -0.948 ± 0.64.

Consider RHQYETKYRPYRVIPLQRMV, for which the amyloid nucleation score came out at 0.277 ± 0.46.

Turning to GRMLKFLCWRWVVLMSGAPG, the amyloid nucleation score result is “inactive”.

For the substance SCYIDRTRYWDGYFLLCSMD, the amyloid nucleation score stood at 0.949 ± 0.74.

With YLHHIRCGYWVVVFVSTGSA, the amyloid nucleation score is -0.252 ± 0.41.

Turning to YVRKVKA, the amyloid nucleation score came out at 0.276 ± 1.

Consider LMHFSFSVAGRAGNELLFIG, for which the amyloid nucleation score was determined as 2.46 ± 0.22.

The substance CYYFLFNS yielded an amyloid nucleation score of 2.31 ± 0.062.

Consider SWTCHSFYFSDSFRHGYR, for which the amyloid nucleation score stood at 2.63 ± 0.069.

The substance LLNCNCIVV yielded an amyloid nucleation score of 8.569 ± 0.031.

Regarding GMGSVCGIIEYAWTA, the amyloid nucleation score stood at 0.627 ± 0.3.

In turn, CNTDDWK displayed an amyloid nucleation score of 0.496 ± 0.66.

In the case of IYRWPFVHPYMPLTRVAPDS, the amyloid nucleation score result was “inactive”.

In turn, RKRVVSQEPCL yielded an amyloid nucleation score of -0.996 ± 0.78.

With RTYVGRPENCKSWSYPMLMQ, the amyloid nucleation score was 4.805 ± 0.039.

As for NDLYDSINEA, the amyloid nucleation score is -0.885 ± 0.38.

Consider QVPGYIAQSKML, for which the amyloid nucleation score is 0.407 ± 0.43.

In the case of SLPSRYWVSLFCTSLLW, the amyloid nucleation score was 0.743 ± 0.81.

With PRWKHLTWIP, the amyloid nucleation score is -0.349 ± 0.64.

Take RREDKLICRFIDVNLEVDW: the amyloid nucleation score came out at 2.72 ± 0.066.

KSCGNGHISDVIYLRGMLGV returned an amyloid nucleation score of -0.538 ± 0.55.

Substance KWIYQIFPVMALECKGVLH came in with an amyloid nucleation score of 2.85 ± 0.15.

For WPYRMMR, the amyloid nucleation score amounted to 0.554 ± 0.74.

The substance FLGEAHFI had an amyloid nucleation score of 0.078 ± 0.4.

In turn, QRMTNMSF displayed an amyloid nucleation score of -1.27 ± 1.

The substance CWVRLIVGMTCYAFKGGSVV returned an amyloid nucleation score of 0.426 ± 0.43.

For the substance ICYFLKGAFRR, the amyloid nucleation score is -0.493 ± 0.78.

Regarding APHGLRKHSIMVAGMLRSVG, the amyloid nucleation score came out at 2.68 ± 0.14.

As for FAVFPLVPGRGPGLFENNRW, the amyloid nucleation score is -0.104 ± 0.74.

Turning to DTGRFVMLVVGR, the amyloid nucleation score was 0.304 ± 0.54.

WIVSGKLTTTFSLRR displayed an amyloid nucleation score of 5.15 ± 0.058.

In turn, ESDSWNVVITDM came in with an amyloid nucleation score of -0.371 ± 0.64.

In turn, LGNIGRTFMYHS yielded an amyloid nucleation score of 1.09 ± 0.27.

With LWLKEVYRWMIGGTRYL, the amyloid nucleation score is -0.618 ± 0.76.

In turn, NSFVYGCKCYALTFLRTFLV registered an amyloid nucleation score of -1.48 ± 0.62.

LYSCWVSCLEGRLVCGPLTH displayed an amyloid nucleation score of -0.65 ± 0.39.

Turning to AFSLCFRYYLPRVNASG, the amyloid nucleation score was -0.147 ± 1.1.

As for SCAGSWNNKGGSKLQWDFLV, the amyloid nucleation score was -1.82 ± 0.75.

Substance FMVWWFTIRVPEDCYQP registered an amyloid nucleation score of -0.5 ± 0.39.

Consider INTSNQFFGYLYLWVSRYRY, for which the amyloid nucleation score was -1.03 ± 0.54.

HNSLMRMVWLNKHPK had an amyloid nucleation score of -0.095 ± 0.8.

With TEIHNT, the amyloid nucleation score result was “inactive”.

Regarding HIGCYAPASISPLLNGEH, the amyloid nucleation score was determined as 0.458 ± 0.8.

Regarding TLAFCFFLTKLSVQCFLYPP, the amyloid nucleation score is 0.241 ± 0.8.

Turning to LYREDGNMSDH, the amyloid nucleation score came out at 1.82 ± 0.28.

ICSTVSVIKT returned an amyloid nucleation score of -0.249 ± 0.64.

Consider CRLEGKTSVPCDNRGLGWAR, for which the amyloid nucleation score came out at 0.938 ± 0.47.

As for FDYKSKKGRNNDWRTVCCVM, the amyloid nucleation score turned out to be 2.21 ± 0.16.

The substance FLKYSDKQHAVNVGLKVTAQ displayed an amyloid nucleation score of 0.094 ± 0.74.

In turn, VSLMKYQVELGNWKEPTCLG had an amyloid nucleation score of 0.14 ± 0.56.

For LLFIIMRDLLYPTLEDTFLT, the amyloid nucleation score is 0.317 ± 0.5.

Take FWDRMGLNEEVFQGSLSSAW: the amyloid nucleation score entry is “inactive”.

In turn, LVRNPAQMSFRPIVHSVCYL came in with an amyloid nucleation score of 0.724 ± 0.16.

Take VLRSTLDD: the amyloid nucleation score result was “inactive”.

In turn, TYSTLFDFRMI had an amyloid nucleation score of 0.099 ± 0.31.

Substance YLIPFMYAKCLSWVILRK displayed an amyloid nucleation score of 0.029 ± 0.23.

In turn, VVWWGVNR returned an amyloid nucleation score of 0.091 ± 0.38.
